These results are taken from the supplement of paper PMC9170038.

Data set [1] deals with MS2 coat protein. The data set can be described thus: apparent KD of MS2 coat protein; designed switch direction (-1 OFF switch, 1 ON switch): -1; higher = weaker reporter binding. The following applies: Eterna round: R98. As for the experimental part:
(§1)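 RNA-MaP: designed FMN/MS2 RNA switches (84 nt design region) are transcribed on-chip within common flanks and titrated with SNAP-549-labelled MS2 coat protein (about 1-3000 nM) in 100 mM Tris pH 7.5, 80 mM KCl, 4 mM MgCl2, without or with 200 uM FMN. Median apparent KD per design; activation ratio = KD,OFF / KD,ON.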

For data set [2], the system named is MS2 coat protein. The data set can be described thus: apparent KD of MS2 coat protein; designed switch direction (-1 OFF switch, 1 ON switch): 1; higher = weaker reporter binding. The following applies: Eterna round: R98. Here is the method:
as §1

Take “AAAAUAAAGGCAGGAUAUACAUGAAUAAAUAAAAUAAAAUAAAAUAAAACAUGAGGAUCACCCAUGUAGAAGGGCCAAAAUAAA [LRO021_Exclusion NG 2]”: the figures for the “apparent KD of MS2 coat protein” value with MS2 coat protein [1] (input ligand: FMN 200 uM) and in the data set with MS2 coat protein [1] (input ligand: none) were 0.178 µM and 0.0715 µM, respectively.
In the same order, the values of “AAAAUAUAGGCAGGAUAUACAUGAAUAUAUAAUAUAAUAUAUAAUAUAACAUGAGGAUCACCCAUGUAGAAGGGCCAUAAUAAA [LRO028_Exclusion NG 2]” are 0.0727 µM and 0.0437 µM.
The matching figures for “ACAUGGAAGCGAGGAUAUGCGGCGGAAACGAACGCAGAAGGCGAAAAAAAAACUCGCAAAAACAUGAGGAUCACCCAUGUAAAA [AK-NGROCr2-ExNG1-4]”: 0.0348 µM and 0.0285 µM.
In the same order, the values of “AUGACAGGCAGAGCGCAACGGCGAACAUGAGGAUCACCCAUGUAGGAUAUGCUACACAAAGUGUAGCAGAAGGACAUGCGACGC [Ex NG2 #85]” are 0.117 µM and 0.0257 µM.
On to “AUGCCGUGCAGAGCGCGACGGCGAACAUGAGGAUCACCCAUGUAGGAUAUACUACACAAAGUGUAGUAGAAGGACGUGCAACAA [Ex NG2 #97]”, for which the “apparent KD of MS2 coat protein” value with MS2 coat protein [1] (input ligand: FMN 200 uM) was 0.0381 µM; with MS2 coat protein [1] (input ligand: none) it was 0.0298 µM.
The matching figures for “CUGGUGAUGUAAGGAUAUGCUGAGGAAUACUCAGCAGAAGGUACAUGAGGAUCACCCAUGUAAAUGAAAGAUAAUAAACACCAG [Excusion NG 1/16-B1]”: 0.0291 µM and 0.0145 µM.
The matching figures for “GCGUAAUUGAUCCUAUUUACCAACAUGAGGAUCACCCAUGUGCAGGAUAUGCUAAAGAUAGAUAAGCAGAAGGGCAAAUACCGC [JR_ExcNG3_Sub003]”: 0.253 µM and 0.067 µM.
In the same order, the values of “GGAUGACAAAGUCAUCCUUAACGAACAUGAGGAUCACCCAUGUAGGAUAUGCUACACAAAGUGUAGCAGAAGGACAUGUGCCUU [Mat - Exclusion NG 3 - JL Mod - D88]” are 0.294 µM and 0.0329 µM.
“GGUUGUUACGCAGGAUAUUGCCAACAGGCAGUAGGAUAUCCGAAAGGAGAAGGAUUGCCAACAGGCGAGAAGGGCGGGUUAACC [pwkr exNG2 2xF7 2FMN.10.6]”: the “apparent KD of MS2 coat protein” value stood at 0.0506 µM in the data set with MS2 coat protein [1] (input ligand: FMN 200 uM) and 0.0333 µM in the data set on MS2 coat protein [1] (input ligand: none).
Consider “GUAGCAUACCGAGGAUAUUCAUACUGGAAACAGACAUGAGGAUCACCCAUGUGGCGAAAGCCUUGGGAGAAGGCGGAAUGCUAC [EliMod 9 - Jieux - Same State NG 2]”, for which the figures for the “apparent KD of MS2 coat protein” value in the data set with MS2 coat protein [2] (input ligand: FMN 200 uM) and in the data set with MS2 coat protein [2] (input ligand: none) were 0.0424 µM and 0.545 µM, respectively.
On to “GUAUGACAAAGUCAUACCGCUUUGACAUGAGGAUCACCCAUGUAGGAUAUAUUAAUCAAAGAUUAAUAGAAGGACAUGUUUCUG [Ex NG2 #68]”, for which the “apparent KD of MS2 coat protein” value in the data set with MS2 coat protein [1] (input ligand: FMN 200 uM) turned out to be 0.175 µM; in the data set on MS2 coat protein [1] (input ligand: none), 0.0946 µM.
On to “UAUAUAAUAAGAGCUGGAAAACUCACAUGAGGAUCACCCAUGUAGGAUAUCAGCACGAUAAGUGCUGAGAAGGACAACCAGCUC [Denovo 73]”, for which the “apparent KD of MS2 coat protein” value in the data set with MS2 coat protein [1] (input ligand: FMN 200 uM) was found to be 0.017 µM; with MS2 coat protein [1] (input ligand: none), 0.0152 µM.
In the case of “UCACUCACGUUAGGAUAUGGAUCGGAAAACGAUCCAGAAGGAACCUGCAAACACGAGGAUCACCCGUGUUCCAAUAACGAGUGA [SameSame 5 - Jieux - Same State NG 1]”, the figures for the “apparent KD of MS2 coat protein” value in the data set on MS2 coat protein [2] (input ligand: FMN 200 uM) and with MS2 coat protein [2] (input ligand: none) were 0.0247 µM and 0.0203 µM, respectively.
As to “UCGAAGAAGCAAGGAUAUCAAUAUUAGAAAAGAUAAACAUGAGGAUCACCCAUGUAAAUAUGGAGUGAGAAGGUGCAAUAAUUU [JR_SSNG2_Sub098]”, the results for the “apparent KD of MS2 coat protein” value in the data set on MS2 coat protein [2] (input ligand: FMN 200 uM) and with MS2 coat protein [2] (input ligand: none) were 0.212 µM and 0.557 µM, respectively.
The matching figures for “UCGGUUUUCGCAGGAUAUGGAGGAUACUCCCACAUGAGCAUCAGCCAUGUCUGCAUGGAGGAAGGCCAGAAGGGCGAGAACCGA [United States 2 - Jieux - Same State NG 2]”: 0.0135 µM and 0.0316 µM.
The matching figures for “UUAUAAAAUAUAGGAUAUGGAAACAUGAGGAUCACCCAUGUAUGAUAAGAUAAAUUAUGAUAUAGCCAGAAGGAUACAAUAUAA [LRO010_SS NG 2]”: 0.0354 µM and 0.0329 µM.
In the same order, the values of “UUUACAUGAGGAUCACCCAUGUUUUGAAAGAUUGGUUUAGGUGAGGAUAUACAUGAUAAUGAAUUGUAGAAGGCACUGGGUACA [JR_SSNG3_Sub029]” are 0.0296 µM and 0.0393 µM.
Take “UUUGGGAGCACAGGAUAUGGCACCUCGACGGCGCCAGAAGGGUGAUUCUGUUGGUGGCCACAUGAGGAUCACCCAUGUGCCUCC [Inerinusce]”: the “apparent KD of MS2 coat protein” value in the data set with MS2 coat protein [2] (input ligand: FMN 200 uM) was 0.0447 µM; in the data set on MS2 coat protein [2] (input ligand: none) it was 0.076 µM.
